Measurements reported in the supplement of paper PMC10126150.
± gives the standard deviation of the averaged measurements.

Test system: ATP
Assay: switch fluorescence ratio, 500 uM ATP over buffer (Cy3 cluster intensity, sum of 5 cycles each) (fold (ratio)); higher = stronger signal-on switching upon ATP binding; sequences stand for … in TCGTCGGCAGCGTCAGATGTGTATAAGAGACAGTTTTTTTTTTTTTTTTTTTTTTTTT…TC
Conditions: aptamer strand: ATP DNA aptamer (quencher-CACCTGGGGGAGTATTGCGGAGGAAGG + anchor), 100 nM annealed; ATP concentration: 500 uM
In short: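 Values give the fluorescence ratio for each switch-domain sequence, averaged from per-cluster ratios of summed target-cycle to summed buffer-cycle Cy3 intensity. The Cy3-labelled switching-strand clusters sat on a modified Illumina MiSeq flow-cell, were annealed to 100 nM quencher-labelled ATP aptamer, and were imaged in selection buffer, then after 15 min with 500 uM ATP at 22 °C. Five cycles ran with NaOH stripping and re-annealing between them, and clusters outside 100-1000 RFU were excluded.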
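Further: ATP exposure 15 min at 22 °C before imaging.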

Row | Sequence | switch fluorescence ratio
1 | CTTATAAATT | 0.999 ± 0.021
2 | CTTATAGGGG | 1 ± 0.035
3 | CTTATAGTGG | 1.06 ± 0.058
4 | CTTATCATAT | 1.09 ± 0.1
5 | CTTATCGTTC | 1.02 ± 0.013
6 | CTTATGAAGC | 1.14 ± 0.012
7 | CTTATTAATC | 1.01 ± 0.028
8 | CTTATTCGCC | 1.05 ± 0.099
9 | CTTATTTGAT | 0.975 ± 0.01
10 | CTTCACATCG | 1.03 ± 0.041
11 | CTTCGCTCGA | 1.35 ± 0.07
12 | CTTCGGGGGT | 1.02 ± 0.019
13 | CTTCGTACGA | 1.03 ± 0.043
14 | CTTCTAGCTT | 0.97 ± 0.058
15 | CTTCTCAGTA | 1.03 ± 0.048
16 | CTTCTTAGTT | 0.976 ± 0.019
17 | CTTCTTTGGG | 1 ± 0.024
18 | CTTCTTTTCA | 1.1 ± 0.064
19 | CTTGAAGGTG | 1.595 ± 0.015
20 | CTTGACAGGT | 1.023 ± 0.0058
21 | CTTGACGCCG | 1.09 ± 0.13
22 | CTTGAGGGGT | 0.971 ± 0.0099
23 | CTTGATACTC | 1.18 ± 0.032
24 | CTTGATATTT | 0.993 ± 0.015
25 | CTTGATTATA | 1.007 ± 0.0061

Row | Sequence | switch fluorescence ratio
26 | CTTGCCTGGG | 0.96 ± 0.028
27 | CTTGCGGTTC | 1.11 ± 0.05
28 | CTTGGATGTT | 0.987 ± 0.024
29 | CTTGGATTCC | 1 ± 0.021
30 | CTTGGGAGGC | 1.02 ± 0.067
31 | CTTGGGAGGG | 0.992 ± 0.029
32 | CTTGGGCCAC | 1 ± 0.032
33 | CTTGGGCCGC | 1.13 ± 0.048
34 | CTTGGGCGGA | 1.027 ± 0.008
35 | CTTGGGGGAT | 0.979 ± 0.038
36 | CTTGGGGGCC | 0.986 ± 0.012
37 | CTTGGGGGGG | 0.991 ± 0.02
38 | CTTGGGTAGG | 1.01 ± 0.035
39 | CTTGGTCCTG | 0.9669 ± 0.007
40 | CTTGGTGCTT | 0.974 ± 0.021
41 | CTTGGTTTTT | 1.01 ± 0.022
42 | CTTGTATCGG | 1 ± 0.056
43 | CTTGTCGATT | 0.999 ± 0.04
44 | CTTGTGAACG | 0.993 ± 0.036
45 | CTTGTGGCTG | 1.031 ± 0.0033
46 | CTTGTGGGGT | 0.978 ± 0.021
47 | CTTGTTCATG | 1 ± 0.017
48 | CTTTAAGTCT | 0.994 ± 0.039
49 | CTTTAAGTTG | 1.03 ± 0.029
50 | CTTTAATGCC | 0.999 ± 0.021

Row | Sequence | switch fluorescence ratio
51 | CTTTACCTAC | 1.327 ± 0.0078
52 | CTTTACTTCC | 2.1 ± 0.024
53 | CTTTACTTCG | 1.07 ± 0.027
54 | CTTTATAGGC | 1.04 ± 0.017
55 | CTTTATATAC | 1.35 ± 0.025
56 | CTTTATGCTG | 1.05 ± 0.047
57 | CTTTATTTAA | 1.02 ± 0.02
58 | CTTTATTTGT | 1.001 ± 0.009
59 | CTTTATTTTC | 1.03 ± 0.039
60 | CTTTCCGTTC | 1.2 ± 0.092
61 | CTTTCGATAG | 1.06 ± 0.049
62 | CTTTCTTGCT | 0.975 ± 0.021
63 | CTTTGAGC | 1 ± 0.064
64 | CTTTGGAATA | 1.07 ± 0.041
65 | CTTTGGATCA | 0.9836 ± 0.0055
66 | CTTTGGGGGA | 0.983 ± 0.023
67 | CTTTGGGGGC | 0.9593 ± 0.0087
68 | CTTTGGTTG | 1.01 ± 0.016
69 | CTTTGTCGAG | 1 ± 0.019
70 | CTTTGTTTGA | 0.976 ± 0.0076
71 | CTTTTAACGA | 1.01 ± 0.03
72 | CTTTTAATGG | 1.03 ± 0.068
73 | CTTTTAATTG | 0.977 ± 0.037
74 | CTTTTACATA | 1.03 ± 0.018
75 | CTTTTAGGGT | 0.996 ± 0.024

Row | Sequence | switch fluorescence ratio
76 | CTTTTAGGTA | 0.9425 ± 0.0069
77 | CTTTTGGGGT | 0.991 ± 0.01
78 | CTTTTTAGAG | 0.994 ± 0.015
79 | CTTTTTAGTG | 0.982 ± 0.023
80 | CTTTTTGGGT | 0.968 ± 0.028
81 | CTTTTTTCGA | 1.04 ± 0.039
82 | CTTTTTTTTA | 0.985 ± 0.021
83 | GAAAAAAAAT | 1 ± 0.067
84 | GAAAAAATGT | 0.967 ± 0.028
85 | GAAAAAGTGC | 0.989 ± 0.095
86 | GAAAAGGGGA | 1.27 ± 0.48
87 | GAAAAGGGTG | 0.99 ± 0.051
88 | GAAAAGTGAG | 0.975 ± 0.016
89 | GAAAATGCAG | 0.999 ± 0.062
90 | GAAACCAGAG | 1.39 ± 0.014
91 | GAAACGCGTA | 0.994 ± 0.021
92 | GAAACGTAAT | 1.19 ± 0.037
93 | GAAACTAATG | 1.01 ± 0.013
94 | GAAACTAGAG | 0.986 ± 0.0047
95 | GAAACTAGTG | 0.996 ± 0.015
96 | GAAAGACGCT | 1.15 ± 0.3
97 | GAAAGAGAGG | 1.003 ± 0.0076
98 | GAAAGAGATG | 1.003 ± 0.008
99 | GAAAGAGGGG | 0.989 ± 0.021
100 | GAAAGGCTCT | 0.9793 ± 0.0031

Row | Sequence | switch fluorescence ratio
101 | GAAAGGGGGT | 0.991 ± 0.027
102 | GAAAGGGTAC | 1.56 ± 0.65
103 | GAAAGGTATT | 0.975 ± 0.021
104 | GAAAGGTCTA | 0.987 ± 0.057
105 | GAAAGGTTTT | 0.9729 ± 0.0055
106 | GAAAGTGGGA | 0.988 ± 0.025
107 | GAAAGTTCAG | 1.002 ± 0.0098
108 | GAAATAAGGC | 1.01 ± 0.013
109 | GAAATAGATC | 0.953 ± 0.07
110 | GAAATCCAGG | 1.297 ± 0.0087
111 | GAAATCGGA | 0.993 ± 0.016
112 | GAAATGAGGG | 0.977 ± 0.047
113 | GAAATGCGCA | 1.08 ± 0.17
114 | GAAATGGGAG | 0.998 ± 0.045
115 | GAAATGGGGA | 1 ± 0.017
116 | GAAATGGGTT | 0.957 ± 0.063
117 | GAAATGTATT | 1.04 ± 0.063
118 | GAAATTAGTG | 1.01 ± 0.039
119 | GAAATTATCA | 0.977 ± 0.025
120 | GAAATTATCG | 0.9988 ± 0.0034
121 | GAAATTGCGG | 0.989 ± 0.024
122 | GAAATTGTTT | 0.991 ± 0.015
123 | GAAATTTAGA | 1.01 ± 0.028
124 | GAAATTTTTG | 0.985 ± 0.029
125 | GAACATGTAT | 0.987 ± 0.026

Row | Sequence | switch fluorescence ratio
126 | GAACATTGAG | 1.019 ± 0.0034
127 | GAACCACGA | 1.05 ± 0.019
128 | GAACCCCCTC | 1.21 ± 0.18
129 | GAACCGCGTA | 1.11 ± 0.036
130 | GAACGGCTAG | 1.02 ± 0.011
131 | GAACGGGACA | 1.18 ± 0.065
132 | GAACGGGGAA | 0.996 ± 0.015
133 | GAACGGGGGA | 0.988 ± 0.035
134 | GAACGTGGTA | 0.9936 ± 0.0038
135 | GAACTAACAG | 1.03 ± 0.021
136 | GAACTAACCA | 1.09 ± 0.02
137 | GAACTAATAT | 1.01 ± 0.017
138 | GAACTAGCGC | 1 ± 0.019
139 | GAACTAGGGG | 1.05 ± 0.088
140 | GAACTAGTAT | 1.01 ± 0.013
141 | GAACTATGTA | 1.038 ± 0.01
142 | GAACTCTTAG | 1.02 ± 0.019
143 | GAACTGGCGC | 1.02 ± 0.096
144 | GAACTGGGGA | 0.984 ± 0.047
145 | GAACTGTTTT | 0.987 ± 0.018
146 | GAACTTGGCG | 1.01 ± 0.041
147 | GAAGAACCGG | 0.974 ± 0.022
148 | GAAGAAGGGT | 0.99 ± 0.017
149 | GAAGAAGGTT | 0.99516 ± 0.00083
150 | GAAGAATTAT | 1.011 ± 0.0007

Row | Sequence | switch fluorescence ratio
151 | GAAGACTGGG | 1.02 ± 0.051
152 | GAAGAGGGAG | 0.997 ± 0.026
153 | GAAGAGGGTT | 0.972 ± 0.033
154 | GAAGAGTTTG | 0.9776 ± 0.0069
155 | GAAGATTGAT | 0.96 ± 0.022
156 | GAAGCCCACG | 1.09 ± 0.019
157 | GAAGCCTTGG | 1.009 ± 0.004
158 | GAAGCGAGTG | 0.9785 ± 0.0056
159 | GAAGCGTCGT | 0.983 ± 0.063
160 | GAAGCGTTGG | 1.02 ± 0.0032
161 | GAAGGAAAGT | 0.9689 ± 0.0057
162 | GAAGGAATCG | 0.995 ± 0.048
163 | GAAGGAGCGG | 0.982 ± 0.023
164 | GAAGGATGCT | 1.03 ± 0.098
165 | GAAGGCCCGT | 0.991 ± 0.037
166 | GAAGGCCGGG | 1.033 ± 0.0054
167 | GAAGGCGGGG | 0.9933 ± 0.0054
168 | GAAGGGACGA | 0.993 ± 0.04
169 | GAAGGGGACT | 1.04 ± 0.076
170 | GAAGGGGGAA | 1.02 ± 0.019
171 | GAAGGGGGCA | 0.9882 ± 0.001
172 | GAAGGGGGGA | 0.985 ± 0.034
173 | GAAGGGGGGG | 0.999 ± 0.042
174 | GAAGGGGTAA | 1.18 ± 0.3
175 | GAAGGGGTCG | 1.05 ± 0.046

Row | Sequence | switch fluorescence ratio
176 | GAAGGGGTTG | 1.02 ± 0.065
177 | GAAGGGTAGC | 0.996 ± 0.037
178 | GAAGGGTGAA | 0.9966 ± 0.0077
179 | GAAGGTACGG | 1.04 ± 0.061
180 | GAAGGTAGGG | 0.99 ± 0.051
181 | GAAGGTATCC | 1.02 ± 0.037
182 | GAAGGTGGGA | 1.038 ± 0.0092
183 | GAAGGTTGCG | 1.03 ± 0.056
184 | GAAGTAAAGT | 1.06 ± 0.15
185 | GAAGTAAGCT | 0.983 ± 0.026
186 | GAAGTACAGC | 1.26 ± 0.031
187 | GAAGTAGGGA | 1 ± 0.064
188 | GAAGTATTGT | 0.9951 ± 0.0062
189 | GAAGTATTTT | 0.962 ± 0.027
190 | GAAGTCATTT | 0.9828 ± 0.0031
191 | GAAGTCTGGA | 1 ± 0.024
192 | GAAGTGCGGA | 0.9795 ± 0.0061
193 | GAAGTTATTT | 0.981 ± 0.021
194 | GAAGTTCATG | 1.03 ± 0.024
195 | GAAGTTGGCA | 0.9964 ± 0.0029
196 | GAAGTTGTTT | 1.018 ± 0.002
197 | GAATAAAAGG | 0.973 ± 0.019
198 | GAATAAAGGT | 0.979 ± 0.02
199 | GAATAGCCCA | 0.9711 ± 0.0012
200 | GAATAGGGGG | 1.013 ± 0.0094
